Test results as given in article PMC7839550 (Angewandte Chemie (International Ed. in English), 2020).
Changes are numbered by the printed parent chain. Names may count otherwise.

Experiments:
RsHMT = biological target: T1, RsHMT (Raphanus sativus, UniProt C6L2E7); test: alkylation of SAH, specific activity; assay type: biochemical; conditions: co-substrate SAH
T1 sequence (C6L2E7 1-226): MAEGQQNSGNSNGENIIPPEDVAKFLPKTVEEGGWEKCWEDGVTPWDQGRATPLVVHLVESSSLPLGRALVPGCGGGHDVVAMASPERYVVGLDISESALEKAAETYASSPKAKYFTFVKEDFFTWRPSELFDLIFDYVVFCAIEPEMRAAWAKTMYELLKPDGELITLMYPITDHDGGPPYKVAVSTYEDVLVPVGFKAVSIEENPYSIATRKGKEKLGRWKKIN

AtHMT [1] = biological target: T2, AtHMT (Arabidopsis thaliana, UniProt Q0WP12, V140T); test: kinetic analysis of methyl transfer to SAH; assay type: biochemical; conditions: read-out: Methyltransferase activity / K M, MeI; co-substrate SAH
T2 sequence (Q0WP12 1-227 V140T): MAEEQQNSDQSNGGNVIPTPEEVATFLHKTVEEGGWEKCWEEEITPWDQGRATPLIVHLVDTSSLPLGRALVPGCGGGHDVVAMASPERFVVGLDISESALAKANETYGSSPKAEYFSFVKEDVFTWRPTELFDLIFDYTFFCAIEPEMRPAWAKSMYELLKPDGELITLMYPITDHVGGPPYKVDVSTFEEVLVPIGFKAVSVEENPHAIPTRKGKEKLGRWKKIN

AtHMT [2] = biological target: T3, AtHMT (Arabidopsis thaliana, UniProt Q0WP12); test: kinetic analysis of methyl transfer to SAH; assay type: biochemical; conditions: read-out: Methyltransferase activity / K M, MeI; co-substrate SAH
T3 sequence (Q0WP12 1-227): T2 sequence (Q0WP12 1-227 V140T) with T140V

[3] = substrate: CCI; test: kinetic analysis of ethyl transfer to SAH; assay type: biochemical, Arabidopsis thaliana; conditions: co-substrate SAH

**Q.** Which “alkylation of SAH, specific activity” value (RsHMT) does the source give for CCI [ethyl iodide] here?
**A.** Its value is “all three enzymes had promiscuous activity against ethyl iodide”.

**Q.** Which results are given for CI [methyl iodide]?
**A.** alkylation of SAH, specific activity (RsHMT): All three HMTs were active using methyl iodide; Km (AtHMT [1]): 4.7 ± 0.76 mM; Km (AtHMT [2]): 1.43 ± 0.19 mM

B1: AtHMT (Arabidopsis thaliana) (protein)
chain: T2 sequence (Q0WP12 1-227 V140T) with T140V
**Q.** What does the source list for B1?
**A.** Km [3]: 9.36 ± 1.66 mM; kcat [3]: 0.006 ± 0.0005 s⁻¹; kcat/Km [3]: 0.633 M⁻¹ s⁻¹

B2: AtHMT (Arabidopsis thaliana; V140T) (protein)
chain: T2 sequence (Q0WP12 1-227 V140T)
**Q.** Which results are given for B2?
**A.** Km [3]: 11.14 ± 1.52 mM; kcat [3]: 0.0397 ± 0.00267 s⁻¹; kcat/Km [3]: 3.57 M⁻¹ s⁻¹
